We go through 4 molecules from US20140308283A1 (TORAY INDUSTRIES, published 2014).

For experiment [1], the target named is T1, CAPRIN-1 protein expressed on the cell membrane surface of human cancer cell lines (human, UniProt Q14444 2-709).
T1 sequence (looked up): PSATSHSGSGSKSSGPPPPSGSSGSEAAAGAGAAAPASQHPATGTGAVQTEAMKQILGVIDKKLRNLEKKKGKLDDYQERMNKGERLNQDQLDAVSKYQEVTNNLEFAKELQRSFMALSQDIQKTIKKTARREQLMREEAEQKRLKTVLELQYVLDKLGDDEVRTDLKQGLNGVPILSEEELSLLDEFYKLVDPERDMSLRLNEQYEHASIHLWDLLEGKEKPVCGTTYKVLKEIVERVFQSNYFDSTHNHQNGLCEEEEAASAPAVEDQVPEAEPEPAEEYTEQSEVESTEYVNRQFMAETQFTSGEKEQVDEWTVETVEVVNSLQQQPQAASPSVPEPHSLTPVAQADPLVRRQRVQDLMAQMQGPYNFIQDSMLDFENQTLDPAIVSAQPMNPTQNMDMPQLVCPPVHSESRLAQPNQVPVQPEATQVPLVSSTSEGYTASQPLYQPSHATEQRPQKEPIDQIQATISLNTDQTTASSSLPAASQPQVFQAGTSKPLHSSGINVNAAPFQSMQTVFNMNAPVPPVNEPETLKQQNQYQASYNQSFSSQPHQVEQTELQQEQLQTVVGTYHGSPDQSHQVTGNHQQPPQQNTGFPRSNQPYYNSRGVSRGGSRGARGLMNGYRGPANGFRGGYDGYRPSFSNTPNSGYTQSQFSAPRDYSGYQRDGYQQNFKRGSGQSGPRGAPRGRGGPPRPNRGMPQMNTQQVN
Briefly: cell-based or functional assay.

Experiment [2] addresses T2, polypeptide of SEQ ID NO: 266 (human).
T2 peptide: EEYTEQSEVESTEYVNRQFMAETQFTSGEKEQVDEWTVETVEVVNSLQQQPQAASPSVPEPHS
In words: ELISA on immobilised synthetic CAPRIN-1 peptides. The protocol:
(§1) Then, the solution in each well was discarded, and each well was washed six times with PBST.
(§2) A TMB substrate solution (manufactured by Thermo Fisher Scientific Inc.) was added thereto at a concentration of 100 μl/well and left standing for 15 to 30 minutes to cause color reaction. After the color development, the reaction was terminated by the addition of 1 N sulfuric acid at a concentration of 100 μl/well. The absorbance was measured at 450 nm and 595 nm using an absorption spectrometer. As a result, a polypeptide of SEQ ID NO: 266 was identified as a partial CAPRIN-1 sequence recognized by all of the anti-CAPRIN-1 antibodies human-chicken chimeric monoclonal antibody #1 and anti-CAPRIN-1 monoclonal antibodies #1 to #5. In the polypeptide of SEQ ID NO: 266, a peptide of SEQ ID NO: 267 was identified as a partial sequence recognized by the human-chicken chimeric monoclonal antibody #1 and the mouse monoclonal antibodies #3 and #4. In the polypeptide of SEQ ID NO: 266, a peptide of SEQ ID NO: 268 was identified as a partial sequence recognized by the mouse monoclonal antibodies #1, #2, and #5. […] Also, a polypeptide comprising the amino acid sequence of SEQ ID NO: 270 was identified as a partial CAPRIN-1 sequence recognized by all of the anti-CAPRIN-1 monoclonal antibodies #6, #7, and #8. […] In addition, a polypeptide comprising the amino acid sequence of SEQ ID NO: 272 was identified as a partial CAPRIN-1 sequence recognized by all of the anti-CAPRIN-1 monoclonal antibodies #9, #10, and #11. […] In addition, a polypeptide comprising the amino acid sequence of SEQ ID NO: 269 was identified as a partial CAPRIN-1 sequence recognized by the human-chicken chimeric monoclonal antibody #3.
(In general: ELISA stands for enzyme-linked immunosorbent assay.)

Experiment [3] concerns the target T3, peptide of SEQ ID NO: 268 (human).
T3 peptide: FTSGEKEQVDEW
In words: ELISA on immobilised synthetic CAPRIN-1 peptides. On the procedure: as §1, §2

For experiment [4], the target named is T1, CAPRIN-1 protein expressed on the cell …. Briefly: flow cytometry on Capan-2, MIAPaCa-2, PANC-1 and BxPC-3 cells, vs isotype control. The protocol:
Next, four pancreatic cancer cell lines (Capan-2, MIAPaCa-2, PANC-1, and BxPC-3) confirmed to have CAPRIN-1 gene expression were examined for their expression of CAPRIN-1 protein on the cell surface. 10⁶ cells of each cell line were centrifuged in each 1.5-ml microcentrifuge tube. The cancer cell surface-reactive anti-CAPRIN-1 mouse monoclonal antibodies #1 to #22 prepared in Example 4 and the culture supernatant (100 μl) containing the anti-CAPRIN-1 mouse-chicken chimeric antibody #1, #2, or #3 prepared in the preceding paragraph (2) were separately added to the tubes and left standing for 1 hour on ice. After washing with PBS, the cells were suspended in FITC-labeled goat anti-mouse IgG antibodies (manufactured by Invitrogen Corp.) diluted 500-fold with PBS containing 0.1% FBS and left standing for 1 hour on ice. After washing with PBS, the fluorescence intensity was measured using FACSCalibur (Becton, Dickinson and Company). On the other hand, the same operation as above was performed using isotype control antibodies, instead of the anti-CAPRIN-1 mouse monoclonal antibodies #1 to #22 and the culture supernatant containing the mouse-chicken chimeric antibody #1, #2, or #3, to prepare a control. As a result, all the cells supplemented with any of the monoclonal antibodies #1 to #22 and the mouse-chicken chimeric antibodies #1, #2, and #3 had fluorescence intensity at least 20% stronger than that of the control. […] The above rate of enhancement in fluorescence intensity was indicated by the rate of increase in mean fluorescence intensity (MFI) in each cell line and calculated according to the following expression: […]

The target of experiment [5] is T4, peptide of SEQ ID NO: 267 (human).
T4 peptide: QQPQAASPSVPE
Briefly: ELISA on immobilised synthetic CAPRIN-1 peptides. The protocol:
as §1, §2

Experiment [6] concerns the target T5, polypeptide comprising the amino acid sequence of SEQ ID NO: 269 (human).
T5 peptide: PPVNEPETLKQQNQYQAS
In words: ELISA on immobilised synthetic CAPRIN-1 peptides. The protocol: as §1, §2

B1: mouse monoclonal antibody #5 (antibody, V domains shown)
VH: DAELVKPGASVKISCKASGYTFTDHSIHWVQQKPEQGLEWIGYISPGNGNIKYNEKFKGKATLTADKSSSTAYMQLNSLTSEDSAVYFCKRSLGRGGPYYFDYWGQGTTVTVSS
VL: DIVLTQAAPSLPVTPGESVSISCRSSKSLLHSNGNTYLYWFLQRPGQSPQLLIYRMSNLASGVPDRFSGSGSGTAFTLRISRVEAEDVGVYYCMQHREYPVTFGSGPN
notes: Mouse hybridoma antibody; also called anti-CAPRIN-1 mouse monoclonal antibody #5
For B1, the “cytotoxic activity (ADCC) against MIAPaCa-2 and Capan-2” value (shortened to “cytotoxic activity (ADCC)”) in experiment [1] is no less than 10%. In addition, the binding result in experiment [2] and in experiment [3] was “binds” throughout. In experiment [4], the “rate of increase in mean fluorescence intensity” value was no less than 20%.

B2: human-chicken chimeric antibody #1 (antibody, human IgG1, kappa, V domains shown)
VH: AVTLDESGGGLQMSRGGLSLVCKASGFDFSSYQMNWIRQAPGKGLEFVAAINKFGNSTGHGAAVKGRVTISRDNGQSTVRLQLNNLRAEDTAIYFCTKHAYGYCGSGTWCAAGEIDAWGHGTEVIVSS
VL: QAASTQPSSVSANPGETVEITCSGGGSYSYGWFQQKSPGSAPVTVIYYNNKRPSDIPSRFSGSKSGSTGTLTITGVQADDEAVYYCGSGDSTDTAVFGAGTTLTVLG
notes: also called human-chicken chimeric monoclonal antibody #1
Turning to B2, the binding result in experiment [2] and in experiment [5] was “binds” in each case.

B3: human-chicken chimeric antibody #3 (antibody, human IgG1, kappa, V domains shown)
VH: AVTLDESGGGLQTPGGALSLVCKASGFTFSGYDMLWVRQAPGKGLEWVAGIGSTGGGTDYGAAVKGRATISRDNGQSTVRLQLNNLRAEDTATYYCAKVAGGCNSGYCRDSPGSIDAWGHGTEVIVSA
VL: AVTQQPASVSANPGETVKITCSGGGSRNYYGWYQQKSPGSVPVTVIYYDDQRPSNIPSRFSGALSGSTSTLTITGVQADDEAVYFCGSADSNTYEGSFGAGTTLTVLT
notes: also called human-chicken chimeric monoclonal antibody #3
With B3, the “cytotoxic activity (ADCC)” value in experiment [1] is no less than 10%. Also, the binding result in experiment [6] is listed as “binds”.

B4: mouse monoclonal antibody #4 (antibody, V domains shown)
VH: GAELVRSGASVKMSCKASGYSFTDYNMYWVKQTPGQGLEWIGYIYPGNGGTNYNQKFKGKATLTADTSSSTAYMQISSLTSEDSAVYFCARDYDDGGYAMDYWGQGTTVTVSS
VL: DIQMTQSPASLSASVGETVTITCRASGNIHNYLTWYQQKQGKSPQLLVYNAKTLADGVPSRFSGSGSGTQYSLKINRLQPEDFGSYYCQHFWNIPWTFGGGTKLNSR
notes: Mouse hybridoma antibody; also called anti-CAPRIN-1 mouse monoclonal antibody #4
B4: the “cytotoxic activity (ADCC)” value in experiment [1] was no less than 10%. For the same molecule, the binding result in experiment [2] and in experiment [5] was “binds” in each case. Moreover, in experiment [4], the “rate of increase in mean fluorescence intensity” value is no less than 20%.
